Assay results: US8598081B2, “Specific delivery of agrochemicals” (priority 2010, dated 2013)

These molecules were tested on gum arabic (assay: VHH binding to gum arabic in ELISA). Conditions: [VHH] 3 μg/ml (200 nM); gum arabic − (well without gum arabic).
Design: species or system acacia tree
Experimental: Titration of VHH antibody fragments was performed on ELISA plates (Maxisorp, Nunc) coated with 100 μl per well 100 μg/ml gum arabic in 50 mM carbonate pH 9.6. Plates were coated at 4° C. overnight and coating was continued at room temperature for 1 hour on the next day. Plates were washed three times with PBS/0.05%-TWEEN®-20 and blocked with 5% skimmed milk in PBS for 1 hour. Four-fold serial dilutions of purified VHH antibody fragments were prepared in 1% MPBS/0.05%-TWEEN®-20 in polypropylene 96-well plates. Antibody concentrations ranged from 3 μg/ml to 12 ng/ml. Antibody dilutions were transferred to the gum arabic-coated plates and VHH antibody fragments were allowed to bind for 1 hour at room temperature. Bound VHH were detected with sequential incubations with monoclonal mouse anti-histidine antibodies (Abd Serotec) and rabbit anti-mouse IgG whole molecule antibodies conjugated with alkaline phosphatase (RaM/AP) (Sigma) in 1% MPBS/0.05%-TWEEN®-20. Unbound antibodies were removed by washing three times with PBS/0.05%-TWEEN®-20 after each antibody incubation. The plates were washed an additional two times with PBS and 100 μl pNPP disodium hexahydrate substrate (Sigma) was added to each well. The absorbance at 405 nm was measured and plotted as function of antibody concentration (see Table 1).

Molecule	absorbance at 405 nm
VHH7A2: VHH sequence; SEQ ID NO:26 by order of the list (protein, listed as Lama glama, 7A2) VHH: QVQLQESGGGSVHPGGSLTLSCLASGFSLSNYGMGWFRQAPGKEREAVSCTSVPNGHIYYAESVKGRFTIVRDNAGNSVYLQMNSLKPEDAANYFCATTDCEAAHWGTWVNYYGQGTQVTVSS	0.075
VHH5F5: VHH sequence; SEQ ID NO:22 by order of the list (protein, listed as Lama glama, 5F5) VHH: QVQLQESGGGLVQPGGSLRLSCAASGFPLGLYGIGWFRQAPGKEREAVSCDSVDDGSTNYLDSVKGRFTISRDNAKNMVYLQMNSLKPEDTAVYYCATTDCDAKAWGTWTNYRGQGTQVTVSS	0.090

Further lines, results first:

absorbance at 405 nm	Molecule
0.077	VHH7C2: VHH sequence; SEQ ID NO:27 by order of the list (protein, listed as Lama glama, 7C2) VHH: QVQLQESGGGLVQPGGSLRLSCAAFGFALANYGIGWFRQAPGKDRERVSCDSVDDGSTHYSNSVQGRFTIIRDNAKNTVFLQMNSLKAEDTAVYYCATTDCDATTWGTWINYRGQGTQVTVSS
0.073	VHH5E5: VHH sequence; SEQ ID NO:21 by order of the list (protein, listed as Lama glama, 5E5) VHH: QVQLQESGGGLVQPGGSLTLSCTASGFAMRRFGIGWFRQVVGKEREGVSCSNVHDGSTYYANYVKGRFTIVRDDTKNMLYLHMNSLRAEDTGVYSCATTDCEATAWGTYRGYFGQGTQVTVSS
